# Measured values: the FLAb antibody collection (doi:10.7554/elife.23156)
# B1: scFv; the commonest letter at each place (parent)
# chain 1: EVKLDETGGGLVQPGRPMKLSCVASGFTFSDYWMNWVRQSPEKGLEWVAQIRNKPYNYETYYSDSVKGRFTISRDDSKSSVYLQMNNLRVEDMGIYYCTGSYYGMDYWGQGTSVTVS
# chain 2: DVVMTQTPLSLPVSLGDQASISCRSSQSLVHSNGNTYLRWYLQKPGQSPKVLIYKVSNRFSGVPDRFSGSGSGTDFTLKISRVEAEDLGVYFCSQSTHVPWTFGGGTKLEIK
# Legend:
# fluorescein = variants of: B1; assay: Kd (Tite-Seq); settings: with fluorescein; format: scFv 4-4-20, heavy + light
# [1] = variants of: B1; assay: yeast surface expression (ratio to wild type); higher = more expressed; settings: format: scFv 4-4-20, heavy + light
Variant,Kd (fluorescein),yeast surface expression [1]
chain 1 Y32E,≥ 10 µM,0.927
chain 1 Y32F,0.00352 µM,0.989
chain 1 Y32Q,≥ 10 µM,0.929
chain 1 Y32L,0.435 µM,0.893
chain 1 Y102K Y107R,0.923 µM,0.991
chain 1 M34A W36T,≥ 10 µM,0.544
chain 1 T28P Y32C,0.00672 µM,0.967
chain 1 W33P N35Y,0.205 µM,0.393
chain 1 F29D V37D,≥ 10 µM,0.557
chain 1 F29W S30V N35H,≥ 10 µM,0.547
chain 1 T28R N35G,0.0162 µM,1.03
chain 1 F29P D31I,≥ 10 µM,0.679
chain 1 Y103M D106F Y107G,≥ 10 µM,0.265
chain 1 G100R G104Q,≥ 10 µM,0.217
chain 1 W108H G109C,≥ 10 µM,0.362
chain 1 D106Y G109K,≥ 10 µM,0.136
chain 1 M105D Y107D,≥ 10 µM,0.442
chain 1 S101Q,≥ 10 µM,0.788
chain 1 Y32Q W36V,≥ 10 µM,0.479
chain 1 Y102N,0.0175 µM,1.04
chain 1 Y102R,0.0252 µM,1.06
chain 1 Y103W Y107W,0.00966 µM,0.724
chain 1 T28W D31Y,0.11 µM,0.371
chain 1 F29G S30K,≥ 10 µM,1.04

Variant,Kd (fluorescein),yeast surface expression [1]
chain 1 T28V Y32N,≥ 10 µM,0.765
chain 1 S101I Y102V,≥ 10 µM,0.488
chain 1 D106F Y107G,≥ 10 µM,0.238
chain 1 G104A D106K,≥ 10 µM,0.362
chain 1 W33Y M34I,≥ 10 µM,0.771
chain 1 G100V Y102P M105N,≥ 10 µM,0.63
chain 1 M105P D106E,≥ 10 µM,0.7
chain 1 N35I W36N,≥ 10 µM,0.743
chain 1 Y32R N35K,≥ 10 µM,1.99
chain 1 T28I Y32T,≥ 10 µM,0.869
chain 1 D31R N35S V37L,≥ 10 µM,0.577
chain 1 T28P W36Y,0.00422 µM,1.05
chain 1 G100E Y102G,≥ 10 µM,0.488
chain 1 Y32I W36Y,≥ 10 µM,0.612
chain 1 S101T W108C,≥ 10 µM,0.471
chain 1 F29D W33V,≥ 10 µM,0.87
chain 1 S101H W108C,≥ 10 µM,0.28
chain 1 D31C W33K,3.74 µM,0.675
chain 1 M34I N35W,≥ 10 µM,0.41
chain 1 Y102Q Y107H,2.01 µM,1.01
chain 1 F29P Y32P,≥ 10 µM,0.856
chain 1 F29P Y32A,2.47 µM,1.12
chain 1 M105V Y107A,≥ 10 µM,0.758
chain 1 S30I N35P,≥ 10 µM,0.35

Variant,Kd (fluorescein),yeast surface expression [1]
chain 1 S30Y W36N,≥ 10 µM,0.436
chain 1 D31R W33S M34P,≥ 10 µM,0.182
chain 1 G104C Y107V,≥ 10 µM,0.461
chain 1 F29K M34Y,0.00708 µM,0.801
chain 1 S30R,0.000964 µM,0.995
chain 1 S30L,0.00638 µM,0.801
chain 1 M105K,0.00546 µM,1.02
chain 1 M105N,0.0233 µM,0.844
chain 1 S30H D31K,0.00468 µM,0.668
chain 1 S30H D31L,≥ 10 µM,0.608
chain 1 T28K W33S,≥ 10 µM,0.995
chain 1 G100L S101K,≥ 10 µM,0.461
chain 1 S101D G104D Y107K,≥ 10 µM,0.674
chain 1 D31K W33R V37C,≥ 10 µM,0.501
chain 1 F29L S30C N35A,≥ 10 µM,0.89
chain 1 Y102V Y103G Y107F,6.27 µM,1.12
chain 1 Y32S V37F,8.13 µM,0.891
chain 1 G100S M105W,5.37 µM,0.758
chain 1 G100A Y103L W108G,5.96 µM,0.436
chain 1 G104C Y107P W108I,≥ 10 µM,0.214
chain 1 Y107A G109M,≥ 10 µM,0.209
chain 1 Y107A G109L,≥ 10 µM,0.218
chain 1 T28M Y32W,≥ 10 µM,0.903
chain 1 W33I V37S,≥ 10 µM,0.617

Variant,Kd (fluorescein),yeast surface expression [1]
chain 1 G100I Y107D,≥ 10 µM,0.381
chain 1 G100I Y107P W108I,≥ 10 µM,0.471
chain 1 M105H W108D,≥ 10 µM,0.353
chain 1 Y32D W33V,≥ 10 µM,0.594
chain 1 N35M V37Y,≥ 10 µM,0.798
chain 1 N35S W36Y,≥ 10 µM,0.787
chain 1 S101M Y103G,≥ 10 µM,0.868
chain 1 G100E Y107H,≥ 10 µM,0.501
chain 1 F29N D31C M34N,≥ 10 µM,0.701
chain 1 M105C W108M,0.000389 µM,0.656
chain 1 F29I N35P,≥ 10 µM,2.62
chain 1 F29I N35I,≥ 10 µM,0.383
chain 1 F29I N35A,≥ 10 µM,0.817
chain 1 S101F W108K,≥ 10 µM,0.217
chain 1 G104D Y107L,≥ 10 µM,1.18
chain 1 G100M M105P Y107D,≥ 10 µM,0.325
chain 1 N35L,≥ 10 µM,0.692
chain 1 G104D M105W,≥ 10 µM,0.703
chain 1 Y103P D106M,≥ 10 µM,0.742
chain 1 Y32P V37Y,≥ 10 µM,0.716
chain 1 G104T Y107I W108Y,≥ 10 µM,0.224
chain 1 G100M M105F,≥ 10 µM,0.769
chain 1 F29G N35I,≥ 10 µM,0.645
chain 1 F29T Y32P,≥ 10 µM,0.901

Variant,Kd (fluorescein),yeast surface expression [1]
chain 1 S30D N35Q,≥ 10 µM,0.883
chain 1 S30D N35R,≥ 10 µM,0.195
chain 1 G100N D106Y,≥ 10 µM,0.146
chain 1 S101A Y103E,0.00966 µM,1.23
chain 1 T28G D31C,≥ 10 µM,0.472
chain 1 S30D M34F,0.00142 µM,1.22
chain 1 Y102H W108A,0.0146 µM,0.528
chain 1 M105Y W108N,≥ 10 µM,0.301
chain 1 S30L D31L,≥ 10 µM,0.0981
chain 1 S30T W33V,≥ 10 µM,0.899
chain 1 S30A V37Y,0.0391 µM,1.1
chain 1 S101W M105I,≥ 10 µM,0.442
chain 1 G100S D106C,≥ 10 µM,1.03
chain 1 D31G W33P,≥ 10 µM,0.569
chain 1 Y102G M105V,≥ 10 µM,1.02
chain 1 Y102G M105C,≥ 10 µM,0.828
chain 1 S30A W33N,≥ 10 µM,0.914
chain 1 T28K,0.000988 µM,1.07
chain 1 T28V F29D,≥ 10 µM,0.952
chain 1 D31L Y32M,≥ 10 µM,0.772
